Ends that are not written are not given here.
B1: PLEKHM1‐LIR WT peptide (EDEWVNVQY), biotinylated (peptide)
peptide: EDEWVNVQY
modifications: also: biotinylated
notes: PLEKHM1 LIR; also called PLEKHM1 LIR 632–640; source: bought: JPT (biotinylated peptide)
B2: PLEKHM1‐LIR V636C peptide (biotinylated 9-mer) (peptide, UniProt Q9Y4G2 632-640, looked up)
peptide: EDEWCNVQY
modifications: also: biotinylated
notes: PLEKHM1 LIR; source: bought: JPT (biotinylated peptide)
B3: PLEKHM1‐LIR N637G peptide (biotinylated 9-mer) (peptide, UniProt Q9Y4G2 632-640, looked up)
peptide: EDEWVGVQY
modifications: also: biotinylated
notes: as for B2
B4: PLEKHM1‐LIR N637P peptide (biotinylated 9-mer) (peptide, UniProt Q9Y4G2 632-640, looked up)
peptide: EDEWVPVQY
modifications: also: biotinylated
notes: as for B2
B5: PLEKHM1‐LIR N637C peptide (biotinylated 9-mer) (peptide, UniProt Q9Y4G2 632-640, looked up)
peptide: EDEWVCVQY
modifications: also: biotinylated
notes: as for B2
B6: PLEKHM1‐LIR N637F peptide (biotinylated 9-mer) (peptide, UniProt Q9Y4G2 632-640, looked up)
peptide: EDEWVFVQY
modifications: also: biotinylated
notes: as for B2
B7: PLEKHM1‐LIR N637I peptide (biotinylated 9-mer) (peptide, UniProt Q9Y4G2 632-640, looked up)
peptide: EDEWVIVQY
modifications: also: biotinylated
notes: as for B2
B8: PLEKHM1‐LIR N637K peptide (biotinylated 9-mer) (peptide, UniProt Q9Y4G2 632-640, looked up)
peptide: EDEWVKVQY
modifications: also: biotinylated
notes: as for B2
B9: PLEKHM1‐LIR N637R peptide (biotinylated 9-mer) (peptide, UniProt Q9Y4G2 632-640, looked up)
peptide: EDEWVRVQY
modifications: also: biotinylated
notes: as for B2
B10: PLEKHM1‐LIR N637A peptide (biotinylated 9-mer) (peptide, UniProt Q9Y4G2 632-640, looked up)
peptide: EDEWVAVQY
modifications: also: biotinylated
notes: as for B2
B11: PLEKHM1‐LIR V638A peptide (biotinylated 9-mer) (peptide, UniProt Q9Y4G2 632-640, looked up)
peptide: EDEWVNAQY
modifications: also: biotinylated
notes: as for B2
B12: PLEKHM1‐LIR V636A peptide (biotinylated 9-mer) (peptide, UniProt Q9Y4G2 632-640, looked up)
peptide: EDEWANVQY
modifications: also: biotinylated
notes: as for B2
B13: Clathrin HC1 LIR peptide (511–519), biotinylated (peptide)
peptide: TPDWIFLLR
modifications: also: biotinylated
notes: Clathrin HC1 LIR; source: bought: JPT (biotinylated peptide)
B14: TBC1D5 (LIR1) peptide (55–63), biotinylated (peptide)
peptide: RKEWEELFV
modifications: also: biotinylated
notes: TBC1D5 LIR1; source: bought: JPT (biotinylated peptide)
B15: KTBD6 LIR peptide (665–673), biotinylated (peptide)
peptide: DDFWVRVAP
modifications: also: biotinylated
notes: KBTBD6 in the text; also called KBTBD6; KBTDB6; source: bought: JPT (biotinylated peptide)
B16: JMY LIR peptide (10–18), biotinylated (peptide)
peptide: ESDWVAVRP
modifications: also: biotinylated
notes: JMY LIR; source: bought: JPT (biotinylated peptide)
B17: NDP52 LIR peptide (130–138), biotinylated (peptide)
peptide: EEDILVVTT
modifications: also: biotinylated
notes: NDP52 LIR; source: bought: JPT (biotinylated peptide)
B18: Tax1BP1 LIR peptide (137–145), biotinylated (peptide)
peptide: NSDMLVVTT
modifications: also: biotinylated
notes: Tax1BP1 LIR; source: bought: JPT (biotinylated peptide)
B19: NIX/BNIPL3 LIR peptide (33–41), biotinylated (peptide)
peptide: NSSWVELPM
modifications: also: biotinylated
notes: NIX LIR; also called Nix/BNIP3L; source: bought: JPT (biotinylated peptide)
B20: c‐CBL LIR peptide (799–807), biotinylated (peptide)
peptide: SFGWLSLDG
modifications: also: biotinylated
notes: c-CBL LIR; source: bought: JPT (biotinylated peptide)
B21: FIP200 LIR peptide (699–707), biotinylated (peptide)
peptide: TFDFETIPH
modifications: also: biotinylated
notes: FIP200 LIR; source: bought: JPT (biotinylated peptide)
B22: ATG4B LIR peptide (4–12), biotinylated (peptide)
peptide: TLTYDTLRF
modifications: also: biotinylated
notes: ATG4B LIR; source: bought: JPT (biotinylated peptide)
B23: Calreticulin LIR peptide (197–205), biotinylated (peptide)
peptide: EDDWDFLPP
modifications: also: biotinylated
notes: Calreticulin LIR; source: bought: JPT (biotinylated peptide)
B24: TP53INP2/DOR LIR peptide (32–40), biotinylated (peptide)
peptide: VDGWLIIDL
modifications: also: biotinylated
notes: TP53INP2/DOR LIR; source: bought: JPT (biotinylated peptide)
B25: TP53INP1 LIR peptide (28–36), biotinylated (peptide)
peptide: DDEWILVDF
modifications: also: biotinylated
notes: TP53INP1 LIR; source: bought: JPT (biotinylated peptide)
B26: TBC1D25 LIR peptide (133–141), biotinylated (peptide)
peptide: LEDWDIISP
modifications: also: biotinylated
notes: TBC1D25 LIR; source: bought: JPT (biotinylated peptide)
B27: TBC1D5 (LIR2) peptide (785–793), biotinylated (peptide)
peptide: DSGFTIVSP
modifications: also: biotinylated
notes: TBC1D5 LIR2; source: bought: JPT (biotinylated peptide)
B28: FYCO1 LIR peptide (1277–1285), biotinylated (peptide)
peptide: DAVFDIITD
modifications: also: biotinylated
notes: FYCO1 LIR; source: bought: JPT (biotinylated peptide)
B29: MAP15K LIR peptide (337–345), biotinylated (peptide)
peptide: SRVYQMILE
modifications: also: biotinylated
notes: printed as MAP15K; source: bought: JPT (biotinylated peptide)
B30: NBR1 LIR peptide (729–737), biotinylated (peptide)
peptide: SEDYIIILP
modifications: also: biotinylated
notes: NBR1 LIR; source: bought: JPT (biotinylated peptide)
B31: DVL2 LIR peptide (441–449), biotinylated (peptide)
peptide: DRMWLKITI
modifications: also: biotinylated
notes: DVL2 LIR; source: bought: JPT (biotinylated peptide)
B32: β‐Catenin LIR peptide (501–509), biotinylated (peptide)
peptide: PSHWPLIKA
modifications: also: biotinylated
notes: β-Catenin LIR; source: bought: JPT (biotinylated peptide)
B33: FAM134B LIR peptide (452–460), biotinylated (peptide)
peptide: GDDFELLDQ
modifications: also: biotinylated
notes: FAM134B LIR; source: bought: JPT (biotinylated peptide)
B34: TECPR2 LIR peptide (1403–1411), biotinylated (peptide)
peptide: DLEDEWEVI
modifications: also: biotinylated
notes: TECPR2 LIR; source: bought: JPT (biotinylated peptide)
B35: OPTN LIR peptide (175–183), biotinylated (peptide)
peptide: EDSFVEIRM
modifications: also: biotinylated
notes: OPTN LIR; source: bought: JPT (biotinylated peptide)
B36: STBD1 LIR peptide (200–208), biotinylated (peptide)
peptide: HEEWEMVPR
modifications: also: biotinylated
notes: STBD1 LIR; source: bought: JPT (biotinylated peptide)
B37: ULK1 LIR peptide (354–362), biotinylated (peptide)
peptide: TDDFVMVPA
modifications: also: biotinylated
notes: ULK1 LIR; source: bought: JPT (biotinylated peptide)
B38: ULK2 LIR peptide (350–358), biotinylated (peptide)
peptide: TDDFVLVPH
modifications: also: biotinylated
notes: ULK2 LIR; source: bought: JPT (biotinylated peptide)
B39: ATG13 LIR peptide (441–449), biotinylated (peptide)
peptide: HDDFVMIDF
modifications: also: biotinylated
notes: ATG13 LIR; source: bought: JPT (biotinylated peptide)
B40: FUNDC1 LIR peptide (printed positions 152–160), biotinylated (peptide)
peptide: DDSYEVLDL
modifications: also: biotinylated
notes: FUNDC1 LIR; source: bought: JPT (biotinylated peptide)

The binders below were run against T1, 6xHis‐tagged GABARAP‐L1 (human, UniProt Q9H0R8 1-117) (assay: ELISA; called peptide array: biotinylated peptides immobilised on streptavidin-coated 96-well plates; 1 μM His6-mATG8 in PBS, 0.1% Tween-20, 1% BSA, 1 h, 8°C; anti-His-HRP, TMB, absorbance at 450 nm). Conditions: both partners purified.
T1 construct: GABARAP-L1, human; also called His6‐GABARAP‐L1; source: E. coli, isolated
T1 sequence (Q9H0R8 whole entry, looked up): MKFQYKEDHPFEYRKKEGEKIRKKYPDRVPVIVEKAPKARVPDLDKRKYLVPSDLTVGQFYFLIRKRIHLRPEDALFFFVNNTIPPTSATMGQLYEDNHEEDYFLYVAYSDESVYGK
B1: binds.
B2: binds.
B3: binds.
B4: binds.
B5: binds.
B6: binds.
B7: binds.
B8: binds.
B9: binds.
B10: binds.

What follows are binders tested against T2, 6xHis‐tagged LC3A (human, UniProt Q9H492 1-121) in the same assay as above. Conditions: both partners purified.
T2 construct: LC3A (MAP1LC3A), human; also called His6‐LC3A; MAP1LC3A; source: E. coli, isolated
B1: binds.
B2: binds.
B5: binds.
B6: binds.
B7: binds.

These binders were tested against T3, 6xHis‐tagged GABARAP‐L2 (human, UniProt P60520 1-117) in the same assay as above. Conditions: both partners purified.
T3 construct: GABARAP-L2/GATE-16, human; also called His6‐GABARAP‐L2; GATE‐16; source: E. coli, isolated
T3 sequence (P60520 whole entry): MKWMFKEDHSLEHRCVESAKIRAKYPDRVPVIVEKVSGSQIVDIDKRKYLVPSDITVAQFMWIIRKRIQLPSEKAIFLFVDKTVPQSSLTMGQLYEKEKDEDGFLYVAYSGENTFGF
B1: binds.
B2: binds.
B3: binds.
B4: binds.
B5: binds.
B6: binds.
B7: binds.
B8: binds.
B9: binds.
B11: binds.
B12: binds.
B10: binds.

The binders below were run against T4, 6xHis‐tagged LC3C (human, UniProt Q9BXW4 1-126) in the same assay as above. Conditions: both partners purified.
T4 construct: LC3C, human; also called His6‐LC3C; source: E. coli, isolated
T4 sequence (Q9BXW4 1-126): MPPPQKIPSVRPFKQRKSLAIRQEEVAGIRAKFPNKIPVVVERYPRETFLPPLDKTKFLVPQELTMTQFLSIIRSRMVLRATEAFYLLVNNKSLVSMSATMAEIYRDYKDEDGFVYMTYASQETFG
B1: binds.
B2: binds.
B5: binds.
B6: binds.
B7: binds.

What follows are binders tested against T5, 6xHis‐tagged GABARAP (human, UniProt O95166 1-117) in the same assay as above. Conditions: both partners purified.
T5 construct: GABARAP, human; also called His6‐GABARAP; source: E. coli, isolated
T5 sequence (O95166 whole entry): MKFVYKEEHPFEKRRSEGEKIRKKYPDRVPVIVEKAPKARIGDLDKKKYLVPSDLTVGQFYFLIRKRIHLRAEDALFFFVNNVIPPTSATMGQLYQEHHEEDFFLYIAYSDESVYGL
B1: binds.
B13: binds.
B14: binds.
B2: binds.
B15: binds.
B16: binds.
B3: binds.
B4: binds.
B5: binds.
B6: binds.
B17: binds.
B7: binds.
B18: binds.
B8: binds.
B9: binds.
B19: binds.
B20: binds.
B21: binds.
B22: binds.
B23: binds.
B24: binds.
B25: binds.
B26: binds.
B27: binds.
B28: binds.
B29: binds.
B30: binds.
B31: binds.
B32: binds.
B33: binds.
B34: binds.
B35: binds.
B11: binds.
B12: binds.
B10: binds.
B36: binds.
B37: binds.
B38: binds.
B39: binds.

The binders below were run against 6xHis‐tagged LC3B (human, UniProt Q9GZQ8 1-120) in the same assay as above. Conditions: both partners purified.
B1: binds.
B2: binds.
B40: binds.
B5: binds.
B6: binds.
B17: binds.
B7: binds.
B18: binds.
B19: binds.
B20: binds.
B21: binds.
B22: binds.
B23: binds.
B24: binds.
B25: binds.
B26: binds.
B27: binds.
B28: binds.
B29: binds.
B31: binds.
B32: binds.
B33: binds.
B34: binds.

Reference: article PMC5538626 (EMBO Reports, 2017)
